# Like-named read-outs stand apart in the source and are kept apart here. Starred links: 1 amine or outer side, 2 acyl side, 3 side chain; linkers in the order of their positions; H or OH if unused. Positions of bridges follow the written chain, without caps; N, C: chain ends. Non-standard residues stand in square brackets, D forms with d. Primed or numbered codes have the meaning given here. PyrS2(3) = (S)-3-amino-1-((pent-4-en-1-yloxy)carbonyl)pyrrolidine-3-carboxylic acid, stapling residue, C=CCCCOC(=O)N1CC[C@@](N[*:1])(C(=O)[*:2])C1; PyrS2″ = (S)-3-amino-1-((pent-4-en-1-yloxy)carbonyl)pyrrolidine-3-carboxylic acid (stapling residue), C=CCCCOC(=O)N1CC[C@@](N[*:1])(C(=O)[*:2])C1; B5(24) = 2-amino-2-(pent-4-en-1-yl)hept-6-enoic acid, 2,2-bis(4-pentenyl)glycine (stitching residue), C=CCCCC(CCCC=C)(N[*:1])C(=O)[*:2]; B5(4) = 2,2-bis(4-pentenyl)glycine = 2-amino-2-(pent-4-en-1-yl)hept-6-enoic acid (stitching residue), C=CCCCC(CCCC=C)(N[*:1])C(=O)[*:2]; TfeGA = (S)-2-amino-3-((carboxymethyl)(2,2,2-trifluoroethyl)amino)propanoic acid, O=C([C@H](CN(CC(=O)[*:3])CC(F)(F)F)N[*:1])[*:2]; PyrS2 = (S)-3-amino-1-((pent-4-en-1-yloxy)carbonyl)pyrrolidine-3-carboxylic acid, C=CCCCOC(=O)N1CC[C@@](N[*:1])(C(=O)[*:2])C1; F2PipNva = (S)-2-amino-5-(4,4-difluoropiperidin-1-yl)pentanoic acid, O=C([C@H](CCCN1CCC(F)(F)CC1)N[*:1])[*:2]; MorphAsn = (S)-2-amino-4-morpholino-4-oxobutanoic acid, O=C(C[C@H](N[*:1])C(=O)[*:2])N1CCOCC1; B5(3) = 2,2-bis(4-pentenyl)glycine (stitching residue), C=CCCCC(CCCC=C)(N[*:1])C(=O)[*:2]; B5″ = 2,2-bis(4-pentenyl)glycine, stitching residue, C=CCCCC(CCCC=C)(N[*:1])C(=O)[*:2]; Phe(F5) = N[C@@H](Cc1c(F)c(F)c(F)c(F)c1F)C(=O)O; Phe(2-Cl) = N[C@@H](Cc1ccccc1Cl)C(=O)O; Bta = N[C@@H](Cc1csc2ccccc12)C(=O)O; Lys(iPr) = CC(C)NCCCC[C@H](N)C(=O)O; αAllylPro = C=CC[C@@]1(C(=O)O)CCCN1; tBuAla = CC(C)(C)C[C@H](N)C(=O)O; Cha = N[C@@H](CC1CCCCC1)C(=O)O
# How the values were obtained:
# [1] = molecular target: T1, B-cat-Halo (beta-catenin HaloTag construct expressed in HEK293 cells) (UniProt P35222 1-781); assay: cell-based or functional assay
# T1 sequence (looked up): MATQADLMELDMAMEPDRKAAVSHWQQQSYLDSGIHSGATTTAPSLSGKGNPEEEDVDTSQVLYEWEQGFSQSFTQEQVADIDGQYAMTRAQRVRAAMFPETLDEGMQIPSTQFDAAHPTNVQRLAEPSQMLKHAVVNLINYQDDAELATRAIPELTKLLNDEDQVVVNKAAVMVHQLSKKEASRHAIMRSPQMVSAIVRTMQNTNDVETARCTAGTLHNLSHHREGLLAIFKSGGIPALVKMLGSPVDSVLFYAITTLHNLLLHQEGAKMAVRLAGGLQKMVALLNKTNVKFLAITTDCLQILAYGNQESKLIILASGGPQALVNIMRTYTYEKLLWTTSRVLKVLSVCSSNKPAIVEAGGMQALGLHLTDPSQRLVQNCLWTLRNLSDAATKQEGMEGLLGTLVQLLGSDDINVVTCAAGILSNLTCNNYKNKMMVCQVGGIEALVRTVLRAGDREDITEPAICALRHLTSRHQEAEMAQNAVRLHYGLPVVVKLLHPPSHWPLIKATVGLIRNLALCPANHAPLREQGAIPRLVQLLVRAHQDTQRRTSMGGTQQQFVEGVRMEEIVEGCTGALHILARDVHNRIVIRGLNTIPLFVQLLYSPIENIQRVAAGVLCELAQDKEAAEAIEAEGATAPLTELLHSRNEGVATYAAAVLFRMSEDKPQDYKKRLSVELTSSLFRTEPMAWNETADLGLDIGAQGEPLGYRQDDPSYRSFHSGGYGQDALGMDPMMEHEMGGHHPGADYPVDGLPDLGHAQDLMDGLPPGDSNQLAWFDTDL
# [2] = molecular target: T2, full-length beta-Catenin (Uniprot ID P35222) (Homo sapiens (Human), UniProt P35222 1-781); assay: fluorescence polarization competition; full-length beta-catenin with 5FAM-TCF4(10-53) probe as competitor
# T2 construct: The assay text says full-length; also called bCat; B-Catenin
# T2 sequence: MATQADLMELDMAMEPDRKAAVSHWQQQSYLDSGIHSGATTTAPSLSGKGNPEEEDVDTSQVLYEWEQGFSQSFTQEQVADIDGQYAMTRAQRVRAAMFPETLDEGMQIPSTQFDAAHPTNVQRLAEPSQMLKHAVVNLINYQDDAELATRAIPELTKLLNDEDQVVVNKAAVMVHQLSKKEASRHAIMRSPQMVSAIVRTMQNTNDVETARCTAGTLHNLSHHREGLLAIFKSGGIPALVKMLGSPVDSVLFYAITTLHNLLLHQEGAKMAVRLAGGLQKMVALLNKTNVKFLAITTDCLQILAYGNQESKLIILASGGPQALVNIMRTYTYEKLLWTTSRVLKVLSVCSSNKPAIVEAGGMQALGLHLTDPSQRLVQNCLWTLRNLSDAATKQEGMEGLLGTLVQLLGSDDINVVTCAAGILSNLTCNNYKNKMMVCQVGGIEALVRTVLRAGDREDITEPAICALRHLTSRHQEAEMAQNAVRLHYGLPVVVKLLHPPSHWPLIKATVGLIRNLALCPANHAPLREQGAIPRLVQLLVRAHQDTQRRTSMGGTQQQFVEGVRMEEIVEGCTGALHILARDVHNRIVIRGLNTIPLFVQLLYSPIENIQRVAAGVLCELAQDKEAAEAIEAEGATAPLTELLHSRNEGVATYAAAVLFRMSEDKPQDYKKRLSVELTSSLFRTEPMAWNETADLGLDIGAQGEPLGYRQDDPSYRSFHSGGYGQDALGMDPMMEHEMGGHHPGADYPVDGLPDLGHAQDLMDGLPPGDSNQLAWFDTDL
# In short: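 Data fitted to 1:1 binding model with hill slope from duplicate reads taken after 60 minutes at 20° C. in the dark.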
# [3] = molecular target: T3, B-cat-Halo (UniProt P35222 1-781); assay: cell-based or functional assay
# T3 sequence (looked up): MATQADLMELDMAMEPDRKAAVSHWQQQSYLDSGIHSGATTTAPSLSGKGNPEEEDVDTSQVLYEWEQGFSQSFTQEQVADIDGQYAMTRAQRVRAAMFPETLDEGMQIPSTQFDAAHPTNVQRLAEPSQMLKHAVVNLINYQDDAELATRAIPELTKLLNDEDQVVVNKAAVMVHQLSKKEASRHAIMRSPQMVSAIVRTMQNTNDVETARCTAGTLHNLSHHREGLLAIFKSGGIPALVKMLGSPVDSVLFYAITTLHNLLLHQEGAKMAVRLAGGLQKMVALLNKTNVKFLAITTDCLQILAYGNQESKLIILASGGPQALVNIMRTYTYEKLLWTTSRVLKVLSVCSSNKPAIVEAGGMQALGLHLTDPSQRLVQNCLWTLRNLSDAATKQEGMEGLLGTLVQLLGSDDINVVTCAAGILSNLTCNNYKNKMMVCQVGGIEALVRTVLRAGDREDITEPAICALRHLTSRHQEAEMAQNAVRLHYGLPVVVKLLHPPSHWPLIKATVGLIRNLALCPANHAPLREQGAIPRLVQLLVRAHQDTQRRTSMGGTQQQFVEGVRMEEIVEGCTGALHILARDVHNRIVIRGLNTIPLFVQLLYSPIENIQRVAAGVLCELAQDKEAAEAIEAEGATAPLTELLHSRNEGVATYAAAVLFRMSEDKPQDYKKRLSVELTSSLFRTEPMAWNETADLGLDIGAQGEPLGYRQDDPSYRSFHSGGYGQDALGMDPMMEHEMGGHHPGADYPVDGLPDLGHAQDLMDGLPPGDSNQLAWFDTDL
# [4] = molecular target: T4, B-cat-Halo (UniProt P35222 1-781); assay: cell-based or functional assay; remark: listed apart in the source
# T4 sequence (looked up): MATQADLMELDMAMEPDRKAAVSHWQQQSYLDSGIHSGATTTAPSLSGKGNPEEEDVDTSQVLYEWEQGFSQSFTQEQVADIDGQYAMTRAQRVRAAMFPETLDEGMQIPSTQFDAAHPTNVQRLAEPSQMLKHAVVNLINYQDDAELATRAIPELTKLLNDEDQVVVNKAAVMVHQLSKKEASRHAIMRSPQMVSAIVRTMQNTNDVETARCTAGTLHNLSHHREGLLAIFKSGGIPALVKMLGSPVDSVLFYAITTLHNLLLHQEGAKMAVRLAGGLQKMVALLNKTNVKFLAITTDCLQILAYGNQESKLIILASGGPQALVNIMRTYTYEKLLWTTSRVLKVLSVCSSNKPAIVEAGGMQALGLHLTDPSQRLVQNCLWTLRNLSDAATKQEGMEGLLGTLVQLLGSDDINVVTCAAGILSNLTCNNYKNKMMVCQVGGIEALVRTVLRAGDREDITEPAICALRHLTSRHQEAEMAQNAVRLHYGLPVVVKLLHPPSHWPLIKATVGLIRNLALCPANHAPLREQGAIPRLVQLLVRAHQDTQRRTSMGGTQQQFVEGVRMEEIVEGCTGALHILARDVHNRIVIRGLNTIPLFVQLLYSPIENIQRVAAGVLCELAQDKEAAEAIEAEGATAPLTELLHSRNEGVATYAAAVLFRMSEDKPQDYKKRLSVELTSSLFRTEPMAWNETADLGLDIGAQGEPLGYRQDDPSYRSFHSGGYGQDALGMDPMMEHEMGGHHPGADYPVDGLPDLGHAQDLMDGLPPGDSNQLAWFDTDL
Binder,IC50 [2] [µM],NanoBRET Abs IC50 [3] [µM],other results
"Ac-[αAllylPro]D[Cha][B5″]DDAAFT[PyrS2(3)][Phe(F5)][Bta]S-NH2 (staple 1-4, 4-11) [I-1187]",,,NanoBRET Abs IC50 [1]: 28.6 µM
"XDLXDEAAFTXFXH (not fully specified; N-terminal Ac; PL3 (pos 1), B5 (pos 4), S8 (pos 11) stapled (PL3-B5 and B5-S8); BztA (pos 13); C-terminal NH2, Stapled peptide; also called Ac-PL3-Asp-Leu-B5-Asp-Glu-Ala-Ala-Phe-Thr-S8-Phe-BztA-His-NH2) [I-617]",0.253,,
"XDLXDEAAFTXFXQ (not fully specified; N-terminal Ac; PL3 (pos 1), B5 (pos 4), S8 (pos 11) stapled (PL3-B5 and B5-S8); BztA (pos 13); C-terminal NH2, Stapled peptide; also called Ac-PL3-Asp-Leu-B5-Asp-Glu-Ala-Ala-Phe-Thr-S8-Phe-BztA-Gln-NH2) [I-622]",0.23,,
"XDLXDEAAFTXFXQ (not fully specified; N-terminal Ac; PL3 (pos 1), B5 (pos 4), S8 (pos 11) stapled (PL3-B5 and B5-S8); BztA (pos 13); C-terminal NH2, Stapled peptide; also called Ac-PL3-Asp-Leu-B5-Asp-Glu-Ala-Ala-Phe-Thr-S8-Phe-BztA-Gln-NH2) [I-623]",0.103,,
"Ac-[αAllylPro]D[Cha][B5(24)]DDAAFS[PyrS2″][Phe(2-Cl)][Bta]L-NH2 (staple 1-4, 4-11) [I-1138]",,19.8,
"Ac-[αAllylPro]D[Cha][B5(24)]DDAAFS[PyrS2″][Phe(2-Cl)][Bta][dT]-NH2 (staple 1-4, 4-11) [I-1136]",,14.9,
"Ac-[αAllylPro]D[tBuAla][B5(4)]D[TfeGA]AAFT[PyrS2][Phe(2-Cl)][Bta][F2PipNva]-NH2 (staple 1-4, 4-11) [I-1607]",,,NanoBRET Abs IC50 [4]: 11.9 µM
"Ac-[αAllylPro]D[tBuAla][B5(3)]D[TfeGA]AAFT[PyrS2″][Phe(2-Cl)][Bta][MorphAsn]-NH2 (staple 1-4, 4-11) [I-1613]",,,NanoBRET Abs IC50 [4]: 5.2 µM
"Ac-[αAllylPro]D[tBuAla][B5(24)]DD[Lys(iPr)]AFN[PyrS2″][Phe(2-Cl)][Bta]Q-NH2 (staple 1-4, 4-11) [I-1131]",,18.8,
